Numbering of substitutions follows the chain as printed.
B1: Wild-type: Pseudomonas sp. SE83 derived wild-type CPC acylase (AcyII), α-subunit SEQ ID NO: 4 and β-subunit SEQ ID NO: 5, from pBCPC (protein)
alpha: TMAAKTDREALQAALPPLSGSLSIPGLSAPVRVQRDGWGIPHIKASGEADAYRALGFVHAQDRLFQMELTRRKALGRAAEWLGAEAAEADILVRRLGMEKVCRRDFEALGAEAKDMLRAYVAGVNAFLASGAPLPIEYGLLGAEPEPWEPWHSIAVMRRLGLLMGSVWFKLWRMLALPVVGAANALKLRYDDGGQDLLCIPPGVEAERLEADLAALRPAVDALLKAMGG
beta: SNNWAVAPGRTATGRPILAGDPHRVFEIPGMYAQHHLACDRFDMIGLTVPGVPGFPHFAHNGKVAYCVTHAFMDIHDLYLEQFAEDGRTARFGNEFEPVAWRRDRIAVRGGADREFDIVETRHGPVIAGDPLEGAALTLRSVQFAETDLSFDCLTRMPGASTVAQLYDATRGWGLIDHNLVAGDVAGSIGHLVRARVPSRPRENGWLPVPGWSGEHEWRGWIPHEAMPRVIDPPGGLIVTANNRVVADDHPDYLCTDCHPPYRAERIMERLVASPAFAVDDAAAIHADTLSPHVGLLRARLEALGIQGSLPAEELRQTLIAWDGRMDAGSQAASAYNAFRRALTRLVTARSGLEQAIAHPFAAVPPGVSPQGQVWWAVPTLLRNDDAGMLKGWSWDEALSEALSVATQNLTGRGWGEEHRPRFTHPLSAQFPAWAALLNPVSRPIGGDGDTVLANGLVPSAGPEATYGALSRYVFDVGNWDNSRWVVFHGASGHPASPHYADQNAPWSDCAMVPMLYSWDRIAAEAVTSQELVPA
modifications: Pseudomonas sp. SE83
B2: S12: sixfold CPC acylase mutant, α-subunit SEQ ID NO: 7 and β-subunit SEQ ID NO: 8 (protein)
alpha: B1 alpha with V121A, G139S
beta: B1 beta with F58N, I75T, I176V, S471C
modifications: alpha-subunit of mutatnt CPC acylase S12 protein; beta-subunit of mutatnt CPC acylase S12 protein

Assays:
[1] = Productivity of CPC acylase, pBC KS(+) plasmids in E. coli MC1061; conditions: E. coli MC1061, LB, 25° C., 48 hr, crude enzyme
Experimental: To compare the productivity of CPC acylase by pBCPC plasmid derived E. coli transformant with that by pBSEM plasmid derived E. coli transformant, a CPC acylase crude enzyme solution obtained from each E. coli transformant was prepared as follows. Each E. coli transformant was inoculated into 3 ml of a LB medium (1% Bacto-Tryptone, 0.5% Yeast Extract, 0.5% NaCl) containing 25 μg/ml of chloramphenicol and cultured at 30° C., 200 rpm for 16 hr with vigorous shaking. 50 μl of the culture solution was transformed to 50 ml of a new LB medium containing […] of chloramphenicol and further cultured at 25° C., 200 rpm for 48 hr with vigorous shaking. The culture solution was subjected to centrifugation at 4° C., 8,000 rpm for 10 min to separate a precipitate and the precipitate washed twice with 0.1 M Tris-HCl buffer solution (pH 8.0). This precipitate was suspended in 5 ml of the same buffer solution and subjected to ultra-sonication at 4° C. for 10 min. […]
The enzyme activity of CPC acylase mutant to CPC was measured according to the method described by Park et al. with minor modifications as follows (Park, et al., Kor. J. Appl. Microbiol. Biotechnol. 23: 559-564, 1995). […] After the reaction, the absorbance of reaction mixture was measured at 415 nm and quantified by comparing with a calibration curve of standard material. […] Meanwhile, the specific activity of CPC acylase mutant for CPC was determined by measuring the amount of protein remaining in the enzyme solution according to the method described by Bradford (Bradford, M., Anal. Biochem. 72: 248-254, 1976) and representing it as an active unit corresponding to 1 mg of protein. The reactivity of CPC acylase mutant to CPC was determined by the following steps of adding the same amount of protein to a reaction mixture, performing an enzyme reaction for a fixed time, measuring the amount of 7-ACA produced in the reaction mixture, and representing it as a relative value. […]

[2] = End-product inhibition by 7-ACA; type: biochemical; conditions: same active unit of enzyme
Experimental: (§1) The enzyme activity of CPC acylase mutant to CPC was measured according to the method described by Park et al. with minor modifications as follows (Park, et al., Kor. J. Appl. Microbiol. Biotechnol. 23: 559-564, 1995). A substrate solution was prepared by dissolving CPC (purity 74.2%; CJ Corp., Korea) in 0.1 M Tris-HCl buffer solution (pH 8.0) at a concentration of 20 mg/ml and adjusting pH to 8 with 1 N NaOH. 20 μl of the CPC solution was mixed with 20 μl of the crude enzyme solution prepared above and the reaction mixture was incubated at 37° C. for 5 min. After the reaction, the mixture (200 μl) of 50 mM NaOH and 20% glacial acetic acid (1:2) was added thereto to stop the reaction. 200 μl of the supernatant recovered from the reaction mixture by centrifugation was mixed with 40 μl of 0.5% (w/v) PDAB (p-dimethylaminobenzaldehyde; Sigma, USA) dissolved in a methanol and the reaction mixture was incubated at 37° C. for 10 min. After the reaction, the absorbance of reaction mixture was measured at 415 nm and quantified by comparing with a calibration curve of standard material. […] Meanwhile, the specific activity of CPC acylase mutant for CPC was determined by measuring the amount of protein remaining in the enzyme solution according to the method described by Bradford (Bradford, M., Anal. Biochem. 72: 248-254, 1976) and representing it as an active unit corresponding to 1 mg of protein. […]

[3] = Reactivity to CPC (relative 7-ACA produced by the same amount of protein); type: biochemical; conditions: crude enzyme solution
Experimental: as §1

[4] = Optimal reaction temperature and pH to CPC; type: biochemical; conditions: purified mutant enzyme
Experimental: Further, as a result of examining the optimal reaction temperature and pH of the wild-type CPC acylase AcyII, the optimal reaction temperature and pH to CPC were 40° C. and 9.0, respectively.

Molecule | The productivity of CPC acylase (unit/l) [1] | The productivity of CPC acylase (unit/l) ([1]; listed as pBCPC (wild-type)) | end-product inhibition by 7-ACA (in words) [2] | reactivity to CPC (in words) [3] | reaction feature (e.g., optimal temperature and pH) compared with wild-type [4]
B1 | about 97 unit/l | 97 unit/l | – | – | –
B2 | 712 unit/l | – | significantly decreased as compared with that of the wild-type enzyme | higher than that of #76 mutant | the same as the wild-type CPC acylase

Reference: US7592168B2, “Cephalosporin C acylase mutant and method for preparing 7-ACA using same” (Sandoz AG, priority 2003, dated 2009)
